T1: BP/KNAT1 (B…US) (Arabidopsis thaliana, UniProt P46639 1-398)
T1 sequence: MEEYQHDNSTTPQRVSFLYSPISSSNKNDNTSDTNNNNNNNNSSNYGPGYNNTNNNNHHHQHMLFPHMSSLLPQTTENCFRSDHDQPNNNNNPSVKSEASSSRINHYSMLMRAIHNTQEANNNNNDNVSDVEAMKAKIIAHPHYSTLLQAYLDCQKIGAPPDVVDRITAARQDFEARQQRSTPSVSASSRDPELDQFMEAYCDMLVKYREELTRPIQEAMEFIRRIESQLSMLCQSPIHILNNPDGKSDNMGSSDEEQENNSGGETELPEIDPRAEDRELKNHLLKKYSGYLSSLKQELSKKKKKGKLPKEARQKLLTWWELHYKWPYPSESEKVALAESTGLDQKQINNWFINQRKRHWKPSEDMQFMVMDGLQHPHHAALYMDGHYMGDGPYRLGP


Experiments:
BP/KNAT1 (B…US) [1] = target: T1, BP/KNAT1 (B…US); assay: EMSA; excess unlabeled probe reduced binding; LightShift Chemiluminescent EMSA kit; 0.5 ug BP-His with biotin-labeled probe, 20 min at room temperature, 6% polyacrylamide gel; buffer, salt and pH not stated; conditions: protein: recombinant; tags: His (pET32a, per Methods); Results text says BP-MBP; label: biotin (both strands, per oligo names); blunt
BP/KNAT1 (B…US) [2] = target: T1, BP/KNAT1 (B…US); assay: competition; excess unlabeled mutant vs biotin-labeled NCED6 probe; did not effectively reduce binding; LightShift Chemiluminescent EMSA kit; 0.5 ug BP-His with biotin-labeled probe, 20 min at room temperature, 6% polyacrylamide gel; buffer, salt and pH not stated; conditions: protein: recombinant; tags: His (pET32a, per Methods); Results text says BP-MBP; blunt
BP/KNAT1 (B…US) [3] = target: T1, BP/KNAT1 (B…US); assay: competition; excess unlabeled mutant vs biotin-labeled NCED9 probe; did not effectively reduce binding; LightShift Chemiluminescent EMSA kit; 0.5 ug BP-His with biotin-labeled probe, 20 min at room temperature, 6% polyacrylamide gel; buffer, salt and pH not stated; conditions: protein: recombinant; tags: His (pET32a, per Methods); Results text says BP-MBP; blunt

Binder | binding result (BP/KNAT1 (B…US) [1]) | other results
NCED6 probe (dsDNA) DNA 1: TAGCCGGACATCATTTATTTGACGGTGACGGAATGATTCACGCCGTTA DNA 2: TAACGGCGTGAATCATTCCGTCACCGTCAAATAAATGATGTCCGGCTA | binds | 
NCED6-M mutant competitor (dsDNA) DNA 1: TAGCCGGACATCATTTATTAAAAGGAAAAGGAATGATTCACGCCGTTA DNA 2: TAACGGCGTGAATCATTCCTTTTCCTTTTAATAAATGATGTCCGGCTA |  | binding result (BP/KNAT1 (B…US) [2]): no binding
NCED9 probe (dsDNA) DNA 1: CATTACACTTTTTTAAAATGACTGGAATGCATGACGTTTGGGCAC DNA 2: GTGCCCAAACGTCATGCATTCCAGTCATTTTAAAAAAGTGTAATG | binds | 
NCED9-M mutant competitor (dsDNA) DNA 1: CATTACACTTTTTTAAAAAAAATGGAATGCAAAAAGTTTGGGCAC DNA 2: GTGCCCAAACTTTTTGCATTCCATTTTTTTTAAAAAAGTGTAATG |  | binding result (BP/KNAT1 (B…US) [3]): no binding
